From paper PMC11546159

Biological target: HLA-A*02:01 on the surface of T2 cells
Experiment: FACS, anti-HLA antibody staining of peptide-pulsed T2 cells (% HLA-A*02+)
Details: peptide 50 μM
[1] = parent: est. 77, read off a plot

Row | Substance | response (parent: 79) [%] | response [1] [%]
1 | HPV16 E6 29-38 peptide C9A | 60 | 58
2 | HPV16 E6 29-38 peptide I5A | 33 | 34
3 | HPV16 E6 29-38 peptide V10A | 2 | –
4 | HPV16 E6 29-38 peptide D4A | 1.9 | –
5 | HPV16 E6 29-38 peptide T1A | 79 | 79
6 | HPV16 E6 29-38 peptide I6A | 71 | 69
7 | HPV16 E6 29-38 peptide L7A | 2.4 | –
8 | HPV16 E6 29-38 peptide H3A | 84 | 81
9 | HPV16 E6 29-38 peptide E8A | 74 | 76
10 | HPV16 E6 29-38 peptide I2A | 2 | –
